Measured values from patent US10556014B2, “Compounds containing a vascular disrupting agent” (Incanthera Ltd, priority 2007, dated 2020).
Where a SMILES comes first, the peptide text is derived from it. [ ]: non-standard residue; d: D form. The star is where a group is joined. NH(Colchicin-10-yl) = COc1cc2c(c(OC)c1OC)-c1ccc(N*)c(=O)cc1[C@@H](NC(C)=O)CC2; FITC = O=C1OC2(c3ccc(O)cc3Oc3cc(O)ccc32)c2ccc(NC(=S)*)cc21; hPhe = N[C@@H](CCc1ccccc1)C(=O)O; Cit = NC(=O)NCCC[C@H](N)C(=O)O; βAla = NCCC(=O)O

How the values were obtained:
[1] = Ex vivo stability in normal mouse plasma (LC/MS/MS); type: in vitro ADME
Description: (§1) [drawing 10] • a) Prodrug-1 has been screened using normal mouse plasma, normal mouse liver homogenate and experimental human tumour model homogenate (HT1080 xenograft; known to express majority of MMPs) ex vivo. Prodrug cleavage and metabolism were detected using LC/MS/MS. • a. Prodrug-1 was stable in plasma and liver, supporting systemic stability of these therapeutics (FIG. 1). • b. […] Plasma, tissues and tumours were collected at regular intervals post-dosing. Levels of prodrug and VDA2 were assessed by LC/MS/MS. • a. […] (FIG. 2) • d. […] VDA2 levels were detected at high levels in tumour tissue following prodrug-1 administration (FIG. 3) • f.
(§2) [drawing 11] • d) Compound 1 was modified in order to change the MMP-targeting of the compound from being pan-MMP to MT-MMP selective (Prodrug-2) • a. Arginine was incorporated in place of the Glutamic acid at the P4 position • b. […] Prodrug-2 cleavage and metabolism were detected using LC/MS/MS. • a. […] Prodrug-2 is not cleaved by recombinant MMP-9, in contrast to prodrug-1 • d. […] Plasma, tissues and tumours were collected at regular intervals post-dosing. Levels of prodrug-2 and VDA2 were assessed by LC/MS/MS. • a. […] Liver was representative of all normal tissues analysed. (FIG. 5) • d. […] Levels of VDA2 in tumour were 10 times higher than that detected in normal tissues following administration of prodrug-2 (FIG. 6) • g. […]

[2] = Ex vivo stability in normal mouse liver homogenate (LC/MS/MS); type: in vitro ADME
Description: as §1, §2

[3] = system: HT1080 xenograft tumour homogenate; assay: Ex vivo metabolism in experimental human tumour model homogenate (HT1080 xenograft); type: in vitro ADME
Description: as §1, §2

[4] = Levels of prodrug and VDA2 in plasma, tissues and tumour after intraperitoneal dosing of mice bearing subcutaneous HT1080 tumour; type: in vivo; conditions: HT1080 tumour bearing mice; for prodrug tissue distribution: all tissues analysed
Description: as §1
[drawing 11] • d) Compound 1 was modified in order to change the MMP-targeting of the compound from being pan-MMP to MT-MMP selective (Prodrug-2) • a. Arginine was incorporated in place of the Glutamic acid at the P4 position • b. […] Prodrug-2 cleavage and metabolism were detected using LC/MS/MS. • a. […] Prodrug-2 is not cleaved by recombinant MMP-9, in contrast to prodrug-1 • d. […] Plasma, tissues and tumours were collected at regular intervals post-dosing. Levels of prodrug-2 and VDA2 were assessed by LC/MS/MS. • a. […] Liver was representative of all normal tissues analysed. (FIG. 5) • d. VDA2 was undetectable in plasma following administration of prodrug-2 (FIG. 6) • e. […] Levels of VDA2 in tumour were 10 times higher than that detected in normal tissues following administration of prodrug-2 (FIG. 6) • g. High levels of prodrug-2 and VDA2 were still detectable in tumour 48 hours post administration.

SMILES	stability in plasma [1]	stability in liver homogenate [2]	metabolism in tumour homogenate ([3]; HT1080 xenograft homogenate (expresses majority of MMPs))	VDA2 levels in normal tissues following prodrug administration [4]	VDA2 levels in tumour following prodrug administration [4]	prodrug levels in the tumour compared with other tissues [4]	VDA2 level in normal tissues after 24 hours post-dosing with prodrug ([4]; 24 hours)	VDA2 level in tumour after 24 hours post-dosing with prodrug ([4]; 24 hours)	prodrug level after 24 hours post-dosing ([4]; 24 hours)	prodrug tissue distribution [4]	metabolism in tumour homogenate expressing high MT-MMP levels ([3]; HT1080 homogenate, relative to homogenate expressing low MT-MMP levels (MCF7))	VDA2 level in plasma following prodrug administration [4]	levels of VDA2 in tumour relative to normal tissues following prodrug administration [4]	VDA2 level in tumour 48 hours post prodrug administration ([4]; 48 hours)	prodrug level in tumour 48 hours post administration ([4]; 48 hours)
COc1cc2c(c(OC)c1OC)-c1ccc(NC(=O)[C@H](Cc3ccc(O)cc3)NC(=O)[C@H](CC(C)C)NC(=O)[C@H](Cc3ccc(O)cc3)NC(=O)[C@H](CCc3ccccc3)NC(=O)CNC(=O)[C@H](CCCNC(N)=O)NC(=O)[C@@H]3CCCN3C(=O)[C@H](CCC(=O)O)NC(=O)CCNC(=S)Nc3ccc4c(c3)C(=O)OC43c4ccc(O)cc4Oc4cc(O)ccc43)c(=O)cc1[C@@H](NC(C)=O)CC2 [Prodrug-1] ({FITC-βAla}-EP[Cit]G[hPhe]YLY-{NH(Colchicin-10-yl)})	stable	stable	metabolised	detectable at low levels	high levels	Highest	undetectable	still detectable at high levels	not detectable	accumulated and was detected in all tissues analysed	–	–	–	–	–
COc1cc2c(c(OC)c1OC)-c1ccc(NC(=O)[C@H](Cc3ccc(O)cc3)NC(=O)[C@H](CC(C)C)NC(=O)[C@H](Cc3ccc(O)cc3)NC(=O)[C@H](CCc3ccccc3)NC(=O)CNC(=O)[C@H](CCCNC(N)=O)NC(=O)[C@H](CO)NC(=O)[C@H](CCCNC(=N)N)NC(=O)CCNC(=S)Nc3ccc4c(c3)C(=O)OC43c4ccc(O)cc4Oc4cc(O)ccc43)c(=O)cc1[C@@H](NC(C)=O)CC2 [Prodrug-2] ({FITC-βAla}-RS[Cit]G[hPhe]YLY-{NH(Colchicin-10-yl)})	remained intact	remained stable	–	–	High concentrations	Highest	–	–	–	accumulated and was detected in all tissues analysed	metabolised rapidly	undetectable	10 times	High levels	High levels
